Assay results from IntAct's records for PubMed 24636949.

B1: Unconventional myosin-Ic (Homo sapiens), O00159-2 (parent)
chain: MESALTARDRVGVQDFVLLENFTSEAAFIENLRRRFRENLIYTYIGPVLVSVNPYRDLQIYSRQHMERYRGVSFYEVPPHLFAVADTVYRALRTERRDQAVMISGESGAGKTEATKRLLQFYAETCPAPERGGAVRDRLLQSNPVLEAFGNAKTLRNDNSSRFGKYMDVQFDFKGAPVGGHILSYLLEKSRVVHQNHGERNFHIFYQLLEGGEEETLRRLGLERNPQSYLYLVKGQCAKVSSINDKSDWKVVRKALTVIDFTEDEVEDLLSIVASVLHLGNIHFAANEESNAQVTTENQLKYLTRLLSVEGSTLREALTHRKIIAKGEELLSPLNLEQAAYARDALAKAVYSRTFTWLVGKINRSLASKDVESPSWRSTTVLGLLDIYGFEVFQHNSFEQFCINYCNEKLQQLFIELTLKSEQEEYEAEGIAWEPVQYFNNKIICDLVEEKFKGIISILDEECLRPGEATDLTFLEKLEDTVKHHPHFLTHKLADQRTRKSLGRGEFRLLHYAGEVTYSVTGFLDKNNDLLFRNLKETMCSSKNPIMSQCFDRSELSDKKRPETVATQFKMSLLQLVEILQSKEPAYVRCIKPNDAKQPGRFDEVLIRHQVKYLGLLENLRVRRAGFAYRRKYEAFLQRYKSLCPETWPTWAGRPQDGVAVLVRHLGYKPEEYKMGRTKIFIRFPKTLFATEDALEVRRQSLATKIQAAWRGFHWRQKFLRVKRSAICIQSWWRGTLGRRKAAKRKWAAQTIRRLIRGFVLRHAPRCPENAFFLDHVRTSFLLNLRRQLPQNVLDTSWPTPPPALREASELLRELCIKNMVWKYCRSISPEWKQQLQQKAVASEIFKGKKDNYPQSVPRLFISTRLGTDEISPRVLQALGSEPIQYAVPVVKYDRKGYKPRSRQLLLTPNAVVIVEDAKVKQRIDYANLTGISVSSLSDSLFVLHVQRADNKQKGDVVLQSDHVIETLTKTALSANRVNSININQGSITFAGGPGRDGTIDFTPGSELLITKAKNGHLAVVAPRLNSR

Variants of: B1
Settings: with 1433b_human YWHAB

effect of a mutation on the interaction | Variant
disrupting interaction strength | S701A
increasing interaction strength | S701E
